From US10047402B2, “RASAL1 is a major tumor suppressor gene in thyroid cancer” (THE JOHNS HOPKINS UNIVERSITY, priority 2013, dated 2018)
“Also recorded” adds a separate entry of the source.

Experiments:
[1] = tested on: thyroid cancer cell lines; test: Demethylation (MSP) and re-expression (RT-PCR) of RASAL1 after 5-Aza-dC treatment; type: cell-based, human; details: for demethylation of RASAL1 (MSP analysis): thyroid cancer cell lines, 5 μM 5-Aza-dC for 24 hours
Procedure: FIG. 2. Hypermethylation of RASAL1 and its re-expression induced by demethylation in thyroid cancer cells. […] After cells were treated with 5 μM 5-Aza-dC for 24 hours, RNA and genomic DNA were extracted and used for reverse-transcription polymerase chain reaction (RT-PCR) and MSP analysis, respectively. C) RT-PCR analysis of RASAL1 expression in thyroid cancer cell lines treated with or without demethylating agent 5-Aza-dC. D) MSP analysis of RASAL1 in matched normal and cancerous thyroid tissues. Six matched sample pairs are presented that had different methylation patterns between normal and matched tumor tissues. E) RASAL1 methylation levels represented by the indicated allelic methylation percentages (x-axis) and their frequencies (y-axis) in different types of thyroid cancers. ATC=anaplastic thyroid cancer; FTC=follicular thyroid cancer; PTC=papillary thyroid cancer.
DNA bisulfate treatment was performed as previously described (29). See Table 3 for MSP primer sequences. The relative level of methylation was normalized using the ratio obtained from the values of the gene of interest over the values of the internal reference gene (β-actin). The relative methylation level was calculated by the formula [M/(M+U)]×100%, in which M and U represent the density of the methylation and unmethylation band, respectively. Results represent the percentage of allelic methylation of the tumor.
RNA extraction and semi-quantitative RT-PCR were performed as previously described (Liu et al., 13(4) CLIN. CANCER RES. 1341-49 (2007)). Normal human thyroid RNA samples (Stratagene, La Jolla, Calif.) were used as the control. The RT-PCR primers are presented Table 3.

KAT18 cells = test: Anchorage independent colony formation, stable transfection; type: cell-based, human; details: KAT18, stably transfected; n=3; control vector 81.67±16.29; P=0.05
K1 cells = test: Colony formation with doxycycline-inducible RASAL1 expression; type: cell-based, human; details: Dox-induced expression, control (no Dox) 86.00±8.54, P=0.006
Procedure: (§1) FIG. 6. […] Scale bar=100 μm. […] Scale bar=100 μm.
Colony formation assays were performed as described previously (Liu et al., 92(6) J. CLIN. ENDOCRINOL. METAB. 2264-71 (2007)). For colony formation in monolayer culture, transfected cells (1×10^5 cells/well) were inoculated into a […], and 24-h later cells were selected with blasticidin (2 μg/mL) for 2 weeks. Surviving colonies were counted after staining with crystal violet. For colony formation in soft agar, cells (5×10^3 cells/well) were plated in RPMI 1640 containing 10% FBS and 0.33% agar in 12-well plates. After 3-4 weeks of culture, colonies were photographed and colony number was counted under a microscope.
RASAL1 cDNA, which was amplified from normal thyroid (Stratagene, La Jolla, Calif.) and tagged with c-myc epitope, was inserted into a modified lenti-virus vector that was derived from plenti6/V5-DEST (Invitrogen, Grand Island, N.Y.). The virus packaging and cell infection were performed as described previously (Liu et al., 18 CANCER RES. 7311-19 (2009)). To construct the plasmid for doxycycline-inducible expression of RASAL1, the CMV promoter in the modified plenti6/V5-DEST plasmid was replaced with the Xho I-EcoR V fragment of plasmid pUHG10-3 (Gossen et al., 89(12) PROC. NATL. ACAD. SCI. USA 5547-51 (1992)), which contained hCMV minimal promoter with heptamerized upstream tet-operators. […]

[2] = tested on: RAS (RAS-GTP) in WRO cells; test: RAS pull-down (RAS activation) assay with ATP stimulation; type: cell-based, human; details: WRO cells stably transfected; ATP treatment
Procedure: as §1
The protocol for cell treatment was as described previously (Walker et al., 23(8) EMBO J. 1749-60 (2004)). Briefly, cells were serum starved for 2 h in serum-free medium at 24 h post-transfection of wild-type H-RAS. Cells were then treated with 50 μM ATP for 1 min. A RAS activation assay kit (Cell Biolabs, San Diego, Calif.) was used to assess RAS activity. After treatment, cells were washed twice with ice-cold PBS and then lysed in 1 mL of assay lysis buffer. After centrifugation at 14,000×g for 10 min at 4° C., cell lysates were incubated at 4° C. for 1 h with 40 μL of the RAF1 RAS-binding domain-agarose beads. The beads were pelleted and washed three times with assay lysis buffer, and then resuspended in 2× reducing SDS-PAGE sample buffer. The quantities of activated RAS (RAS-GTP) were analyzed by Western blotting using anti-RAS monoclonal antibody.

[3] = tested on: MAPK and PI3K signaling pathways (pERK, pAkt) in thyroid cancer cell lines; test: Western blotting of ERK and Akt phosphorylation after RASAL1 expression; type: cell-based, human; details: for pERK and pAkt levels: acute expression; for pERK and pAKT: stable expression
[4] = tested on: K1 cell-derived xenograft tumors; test: Xenograft tumor formation in nude mice
Excerpt: The procedures for the construction of doxycycline (Dox)-inducible expression device for RASAL1 and transfection of K1 cells are as described in the Materials and Methods section below. […] Each time point represents the average±standard deviation of the values obtained from four mice in each group. Two-tailed paired Student t test was used to compare tumor sizes at week 5. H) Photographs of the tumors that were surgically removed from mice in each group after they were killed at the end of 5 weeks from the cell inoculation. I) Weight of individual tumors surgically removed from the animals in each group corresponding to (H). The average weight of the tumors from each group is indicated with a short horizontal bar.
The animals' care was in accord with the guidelines of Johns Hopkins Medical Institutions. K1 cells stably transfected with doxcycycline-inducible wild-type RASAL1 or RASAL1 mutants constructed as described above were injected (1×10^7 cells/mouse) subcutaneously into flanks of female nude mice at the age of 4 weeks (Harlan Sprague Dawley, Indianapolis, Ind.). Mice were fed vehicle or 0.2 mg/mL doxycycline, which was stored in a 0.5% sucrose solution in light-proof bottles, beginning when the tumor grew to a size of 2 mm at 1.5 weeks after the inoculation of cells. Tumor size was measured, and volume was calculated using the formula (length×width2)/2. After 5 weeks, mice were sacrificed, and tumors were surgically removed, photographed, and weighed.

[5] = tested on: thyroid cancer cell lines; test: Colony formation in monolayer culture after transient RASAL1 transfection; type: cell-based, human; details: transient reintroduction, compared with control vector; six of seven thyroid cancer cell lines tested
C643 cells = test: Anchorage independent colony formation, stable transfection; type: cell-based, human; details: C643, stably transfected; n=3; control vector 92.67±18.15; P=0.03
WRO cells = test: Colony formation in soft agar, stable transfection; type: cell-based, human
Excerpt: FIG. 5. Examination of the effects of reintroduction of RASAL1 on RAS signaling and growth of thyroid cancer cells. A) A representative result of Western blotting analysis of RASAL1 expression and phosphorylation of ERK and Akt as well as other related proteins as indicated in various thyroid cancer cell lines that harbor different genetic alterations. B) A representative result of colony formation of thyroid cancer cells in monolayer culture after transfection of plasmids with or without insertion of RASAL1 cDNA followed by drug selection for 2 weeks. Cell colonies were stained with crystal violet. Scale bar=1 cm. C) Western blotting analysis of RASAL1 expression and phosphorylation of ERK and Akt and related proteins as indicated in three selected thyroid cancer cell lines stably transfected with RASAL1. D) Bar graph presentation of the colony numbers (mean±standard deviation) from three experiments for cells stably transfected with empty vectors or RASAL1 as in (C). Only cell colonies containing more than 50 cells were included.
as §1
Colony formation assays were performed as described previously (Liu et al., 92(6) J. CLIN. ENDOCRINOL. METAB. 2264-71 (2007)). […] Surviving colonies were counted after staining with crystal violet. […] After 3-4 weeks of culture, colonies were photographed and colony number was counted under a microscope.

## Nc1ncn([C@H]2C[C@H](O)[C@@H](CO)O2)c(=O)n1 [5-Aza, 5-aza-2-deoxycytidine]
[1]; in six of the eight thyroid cancer cell lines tested, 5 μM for 24 hours
  RASAL1 expression (RT-PCR): restored its expression
[1]
  demethylation of RASAL1 (MSP analysis): induced demethylation of RASAL1
[1]; listed as 5-Aza-dC
  demethylation of RASAL1 (MSP analysis): Partial demethylation

B1: RASAL1: RASAL1 cDNA from normal thyroid, c-myc tagged, in lenti-virus vector, expressed in thyroid cancer cells; RasGAP tumor suppressor protein (protein, UniProt O95294 1-804, looked up)
RasGAP-activating-like …: MAKSSSLNVRVVEGRALPAKDVSGSSDPYCLVKVDDEVVARTATVWRSLGPFWGEEYTVHLPLDFHQLAFYVLDEDTVGHDDIIGKISLSREAITADPRGIDSWINLSRVDPDAEVQGEICLSVQMLEDGQGRCLRCHVLQARDLAPRDISGTSDPFARVFWGSQSLETSTIKKTRFPHWDEVLELREMPGAPSPLRVELWDWDMVGKNDFLGMVEFSPKTLQQKPPKGWFRLLPFPRAEEDSGGNLGALRVKVRLIEDRVLPSQCYQPLMELLMESVQGPAEEDTASPLALLEELTLGDCRQDLATKLVKLFLGRGLAGRFLDYLTRREVARTMDPNTLFRSNSLASKSMEQFMKLVGMPYLHEVLKPVISRVFEEKKYMELDPCKMDLGRTRRISFKGALSEEQMRETSLGLLTGYLGPIVDAIVGSVGRCPPAMRLAFKQLHRRVEERFPQAEHQDVKYLAISGFLFLRFFAPAILTPKLFDLRDQHADPQTSRSLLLLAKAVQSIGNLGQQLGQGKELWMAPLHPFLLQCVSRVRDFLDRLVDVDGDEAGVPARALFPPSAIVREGYLLKRKEEPAGLATRFAFKKRYVWLSGETLSFSKSPEWQMCHSIPVSHIRAVERVDEGAFQLPHVMQVVTQDGTGALHTTYLQCKNVNELNQWLSALRKASAPNPNKLAACHPGAFRSARWTCCLQAERSAAGCSRTHSAVTLGDWSDPLDPDAEAQTVYRQLLLGRDQLRLKLLEDSNMDTTLEADTGACPEVLARQRAATARLLEVLADLDRAHEEFQQQERGKAALGPLGP
modifications: c-myc tag
notes: RASAL1 cDNA from normal thyroid, c-myc tagged, in lenti-virus vector, expressed in thyroid cancer cells; RasGAP tumor suppressor protein
KAT18 cells
  colony number: 54.00±6.56
K1 cells
  colony number: 40.33±6.03
[2]
  effect on activation of RAS and increase in pAKT and pERK stimulated by ATP: suppressed the activation of RAS and the increase in pAKT and pERK
[3]; BCPAP cells (BRAF mutation)
  pERK and pAkt levels: only reduced pAKT but not pERK
[3]; C643 cells (RAS mutation)
  pERK and pAkt levels: No effect was observed; also recorded: no effect on pERK and pAKT
[3]; FTC-133 cells (PTEN mutation)
  pERK and pAkt levels: reduced pERK but not pAKT
[3]; Hth7 cells (RAS mutation)
  pERK and pAkt levels: No effect was observed
[3]; KAT18 cells (wild-type RAS, BRAF, PIK3CA, PTEN)
  pERK and pAkt levels: decreased both pERK and pAkt levels
[3]; KAT18 cells
  pERK and pAKT: inhibition of pERK and pAKT was observed
[3]; SW1736 cells (BRAF mutation)
  pERK and pAkt levels: No effect was observed
[3]; TPC1 cells (RET-PTC1 rearrangement)
  pERK and pAkt levels: no effect
[3]; WRO cells (wild-type RAS, BRAF, PIK3CA, PTEN)
  pERK and pAkt levels: decreased both pERK and pAkt levels
[3]; WRO cells
  pERK and pAKT: inhibition of pERK and pAKT was observed
[4]; doxycycline-induced expression in K1 xenografts
  effect on tumor growth: statistically significant inhibitory effect
[4]; doxycycline-induced expression, after 5 weeks, without induction 1.01±0.54, P=0.047
  tumor weight: 0.66 ± 0.53 g
[4]; doxycycline-induced expression, week 5, without induction 0.94±0.52, P=0.02
  tumor volume: 0.49±0.4 cm3
[5]
  cell colony growth in monolayer culture: dramatically inhibited cell colony growth
C643 cells
  colony number: 55.33±9.71
WRO cells; WRO cell pools, wild-type vs mutants experiment, vector 52.00±9.54, P=0.009
  colony number: 24.00±7.81
WRO cells; WRO, stably transfected, n=3, control vector 48.00±13.45, P=0.03
  colony number: 21.67±6.35
